{
  "source": "patent EP1808439A2",
  "target": "epiligrin-ECM^t (trypsin-treated HFK-ECM) (human) (UniProt Q16787)",
  "sequence (Q16787 other isoform, or with tags, fused parts or gaps)": "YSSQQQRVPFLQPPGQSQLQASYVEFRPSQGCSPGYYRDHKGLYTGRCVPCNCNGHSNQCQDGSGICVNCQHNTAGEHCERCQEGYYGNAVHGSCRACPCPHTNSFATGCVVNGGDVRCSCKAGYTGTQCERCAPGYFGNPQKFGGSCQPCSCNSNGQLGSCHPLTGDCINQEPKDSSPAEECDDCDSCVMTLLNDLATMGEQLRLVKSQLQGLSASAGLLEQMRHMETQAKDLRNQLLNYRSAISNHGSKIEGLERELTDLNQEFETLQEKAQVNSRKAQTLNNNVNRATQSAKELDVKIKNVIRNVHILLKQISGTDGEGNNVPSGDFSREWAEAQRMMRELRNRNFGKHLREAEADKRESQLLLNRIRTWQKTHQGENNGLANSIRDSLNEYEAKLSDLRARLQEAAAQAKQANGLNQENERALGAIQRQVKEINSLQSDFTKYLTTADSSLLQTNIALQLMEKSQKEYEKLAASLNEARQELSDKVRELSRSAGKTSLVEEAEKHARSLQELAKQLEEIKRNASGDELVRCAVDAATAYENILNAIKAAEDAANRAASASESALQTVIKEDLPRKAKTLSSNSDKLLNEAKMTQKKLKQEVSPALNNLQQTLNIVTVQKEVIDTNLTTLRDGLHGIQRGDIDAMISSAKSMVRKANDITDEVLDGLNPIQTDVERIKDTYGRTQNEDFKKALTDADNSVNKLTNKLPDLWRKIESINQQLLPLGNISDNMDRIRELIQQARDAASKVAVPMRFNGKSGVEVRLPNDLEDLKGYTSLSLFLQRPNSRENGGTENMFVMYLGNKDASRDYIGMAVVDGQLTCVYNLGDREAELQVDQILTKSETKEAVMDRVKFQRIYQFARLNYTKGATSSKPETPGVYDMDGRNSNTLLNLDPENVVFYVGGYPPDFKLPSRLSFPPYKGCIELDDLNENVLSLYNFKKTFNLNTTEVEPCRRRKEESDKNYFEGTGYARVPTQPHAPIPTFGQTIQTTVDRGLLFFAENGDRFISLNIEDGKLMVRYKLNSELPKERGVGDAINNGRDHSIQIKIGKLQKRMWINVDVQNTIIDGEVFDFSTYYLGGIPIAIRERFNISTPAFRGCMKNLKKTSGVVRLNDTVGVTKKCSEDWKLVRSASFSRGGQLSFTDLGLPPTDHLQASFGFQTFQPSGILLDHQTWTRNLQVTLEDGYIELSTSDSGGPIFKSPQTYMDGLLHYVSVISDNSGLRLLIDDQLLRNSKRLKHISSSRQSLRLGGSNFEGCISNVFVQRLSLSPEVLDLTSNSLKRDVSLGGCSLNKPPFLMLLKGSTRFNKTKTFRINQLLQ",
  "assay": "cell-based or functional assay",
  "data": [
    {"substance": "integrin α6β4, P23229 24-1130; P16144 28-1822", "values": [
      {"measurement": "% adherent cells, 51Cr-labelled HFK on epiligrin-ECM^t, 4°C, 0 min", "value": 30, "unit": "%"},
      {"measurement": "% adherent cells, 51Cr-labelled HFK on epiligrin-ECM^t, 4°C, 2 min", "value": 28, "unit": "%"},
      {"measurement": "% adherent cells, 51Cr-labelled HFK on epiligrin-ECM^t, 4°C, 5 min", "value": 28, "unit": "%"},
      {"measurement": "% adherent cells, 51Cr-labelled HFK on epiligrin-ECM^t, 4°C, 10 min", "value": 25, "unit": "%"},
      {"measurement": "% adherent cells, 51Cr-labelled HFK on epiligrin-ECM^t, 4°C, 15 min", "value": 37, "unit": "%"},
      {"measurement": "% adherent cells, 51Cr-labelled HFK on epiligrin-ECM^t, 4°C, 25 min", "value": 35, "unit": "%"},
      {"measurement": "% adherent cells, 51Cr-labelled HFK on epiligrin-ECM^t, 4°C, 30 min", "value": 31, "unit": "%"},
      {"measurement": "% adherent cells, 51Cr-labelled HFK on epiligrin-ECM^t, 4°C, 45 min", "value": 30, "unit": "%"},
      {"measurement": "% adherent cells, 51Cr-labelled HFK on epiligrin-ECM^t, 4°C, 60 min", "value": 35, "unit": "%"},
      {"measurement": "% adherent cells, 51Cr-labelled HFK on epiligrin-ECM^t, 37°C, 0 min", "value": 0, "unit": "%"},
      {"measurement": "% adherent cells, 51Cr-labelled HFK on epiligrin-ECM^t, 37°C, 2 min", "value": 10, "unit": "%"},
      {"measurement": "% adherent cells, 51Cr-labelled HFK on epiligrin-ECM^t, 37°C, 5 min", "value": 10, "unit": "%"},
      {"measurement": "% adherent cells, 51Cr-labelled HFK on epiligrin-ECM^t, 37°C, 10 min", "value": 20, "unit": "%"},
      {"measurement": "% adherent cells, 51Cr-labelled HFK on epiligrin-ECM^t, 37°C, 15 min", "value": 26, "unit": "%"},
      {"measurement": "% adherent cells, 51Cr-labelled HFK on epiligrin-ECM^t, 37°C, 25 min", "value": 36, "unit": "%"},
      {"measurement": "% adherent cells, 51Cr-labelled HFK on epiligrin-ECM^t, 37°C, 30 min", "value": 38, "unit": "%"},
      {"measurement": "% adherent cells, 51Cr-labelled HFK on epiligrin-ECM^t, 37°C, 45 min", "value": 50, "unit": "%"},
      {"measurement": "% adherent cells, 51Cr-labelled HFK on epiligrin-ECM^t, 37°C, 60 min", "value": 60, "unit": "%"}
    ]}
  ]
}
